Results from patent EP4293040A1.

Target: human trimeric IL-2 receptor (IL-2Rα, IL2Rβ and reconstituted transgenic wild-type GCR) on GnR cells (human) (UniProt P01589)
Assay: cell-based or functional assay

IL-15 (from UniProt P40933 49-162) (ligand)
EC50 of the mRuby2 response (STAT5-mRuby2 reporter): 0.56 nM
